Reference: patent publication US20200246419A1

Target: CD36 (human) (UniProt P16671)
Assay: cell-based or functional assay

CD36 (human), sequence (P16671 2-472): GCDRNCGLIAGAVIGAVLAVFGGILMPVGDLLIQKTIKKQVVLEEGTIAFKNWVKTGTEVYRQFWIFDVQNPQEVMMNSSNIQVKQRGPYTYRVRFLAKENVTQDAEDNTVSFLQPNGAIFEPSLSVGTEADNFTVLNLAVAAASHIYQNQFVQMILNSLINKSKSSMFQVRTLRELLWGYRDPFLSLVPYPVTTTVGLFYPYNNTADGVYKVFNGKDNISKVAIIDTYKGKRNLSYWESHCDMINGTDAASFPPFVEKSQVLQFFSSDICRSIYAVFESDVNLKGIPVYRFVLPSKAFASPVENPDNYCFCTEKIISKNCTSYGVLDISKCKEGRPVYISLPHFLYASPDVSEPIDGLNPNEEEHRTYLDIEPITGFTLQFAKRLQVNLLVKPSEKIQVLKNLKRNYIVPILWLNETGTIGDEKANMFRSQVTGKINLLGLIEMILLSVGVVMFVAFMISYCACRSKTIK

## recombinant human Tsp-1 (from UniProt P07996 19-1170) (ligand)
  total cell number (Wst-1 assay) of patient-derived ovarian cancer cell lines treated with rhTsp-1 for up to 72 hours: < 50%
